Reference: publication PMC10308901, “In vitro and ex vivo proteomics of Mycobacterium marinum biofilms and the development of biofilm-binding synthetic nanobodies” (mSystems, 2023)
Changes are numbered by the printed parent chain.

B1: GroEL1 sybody number 5 (VHH)
VHH: QVQLVESGGGLVQAGGSLRLSCAASGFPVEHKQMRWYRQAPGKEREWVAAIESSGQYTIYADSVKGRFTISRDNAKNTVYLQMNSLKPEDTAVYYCFVGVGAGYYGQGTQVTVSA
notes: not shown: Myc, C-terminal, kept; His6, C-terminal, kept
B2: GroEL1 sybody number 12 (VHH)
VHH: QVQLVESGGGLVQAGGSLRLSCAASGFPVTQAWMEWYRQAPGKEREWVAAIFSHGGGTFYADSVKGRFTISRDNAKNTVYLQMNSLKPEDTAVYYCNVKDTGERDNWYDYWGQGTQVTVSA
notes: as for B1
B3: GroEL1 sybody number 9 (VHH)
VHH: QVQLVESGGGLVQAGGSLRLSCAASGLPVWQQGMTWYRQAPGKEREWVAAIDSVGAQTYYADSVKGRFTISRDNAKNTVYLQMNSLKPEDTAVYYCAVNVGARYIGQGTQVTVSA
notes: as for B1
B4: GroEL1 sybody number 31 (VHH)
VHH: QVQLVESGGGSVQAGGSLRLSCAASGTIYKIYYLGWFRQAPGKEREGVAALNTFSGGTYYADSVKGRFTVSLDNAKNTVYLQMNSLKPEDTALYYCAAAYDMEGYAWPLYWWHYEYWGQGTQVTVSA
notes: also called GroEL1_SB31; not shown: Myc, C-terminal, kept; His6, C-terminal, kept
B5: GroEL1 sybody number 1 (VHH)
VHH: QVQLVESGGGLVQAGGSLRLSCAASGFPVEQRQMYWYRQAPGKEREWVAAIQSYGKRTKYADSVKGRFTISRDNAKNTVYLQMNSLKPEDTAVYYCVVYVGGGYKGQGTQVTVSA
notes: as for B1
B6: GroEL1 sybody number 18 (VHH)
VHH: QVQLVESGGGLVQAGGSLRLSCAASGFPVKTKHMYWYRQAPGKEREWVAAITSIGMITAYADSVKGRFTISRDNAKNTVYLQMNSLKPEDTAVYYCNVKDWGTNRQAYDYWGQGTQVTVSA
notes: as for B1
B7: GroEL2 sybody number 3 (VHH)
VHH: QVQLVESGGGLVQAGGSLRLSCAASGFPVAYWEMVWYRQAPGKEREWVAAIRSTGWKTVYADSVKGRFTISRDNAKNTVYLQMNSLKPEDTAVYYCTAVYVGVHYKGQGTQVTVSA
notes: also called GroEL2_SB3; not shown: Myc, C-terminal, kept; His6, C-terminal, kept
B8: GroEL2 sybody number 2 (VHH)
VHH: QVQLVESGGGLVQAGGSLRLSCAASGFPVSSSTMTWYRQAPGKEREWVAAIDSVGNETYYADSVKGRFTISRDNAKNTVYLQMNSLKPEDTAVYYCAVFVGSYYGQGTQVTVSA
notes: as for B1
B9: GroEL2 sybody number 19 (VHH)
VHH: QVQLVESGGGLVQAGGSLRLSCAASGFPVEWLEMAWYRQAPGKEREWVAAIYSYGMETEYADSVKGRFTISRDNAKNTVYLQMNSLKPEDTAVYYCNVKDGGHAAWWYDYWGQGTQVTVSA
notes: as for B1
B10: GroEL2 sybody number 32 (VHH)
VHH: QVQLVESGGGLVQAGGSLRLSCAASGFPVVSQFMEWHRQAPGKEREWVAAIDSTGYSTFYADSVKGRFTISRDNAKNTVYLQMNSLKPEDTAVYYCNVKDAGEGQEQYDYWGQGTQVTVSA
notes: as for B1
B11: GroEL2 sybody number 16 (VHH)
VHH: QVQLVESGGGLVQAGGSLRLSCAASGFPVSSSTMTWYRQAPGKEREWVAAIESWGAYTWYADSVKGRFTISRDNAKNTVYLQMNSLKPEDTAVYYCNVKDYDGVADVIYDYWGQGTQVTVSA
notes: as for B1
B12: GroEL2 sybody number 8 (VHH)
VHH: QVQLVESGGGLVQAGGSLRLSCAASGFPVYMSWMYWYRQAPGKEREWVAAIMSEGAGTWYADSVKGRFTISRDNAKNTVYLQMNSLKPEDTAVYYCNVKDTGSFHAQYDYWGQGTQVTVSA
notes: as for B1
B13: GroEL2 sybody number 33 (VHH)
VHH: B12 VHH with M31Q, S32H, E54Q, K65R, T101L, S103K, F104A, H105E, A106Y, Q107N
notes: as for B1
B14: GroEL2 sybody number 22 (VHH)
VHH: B12 VHH with M31H, E54D, A56H, F104S, H105T, A106T, Q107I
notes: as for B1
B15: GroEL2 sybody number 9 (VHH)
VHH: B12 VHH with M31Q, E54D, A56S, T101F, S103H, F104S, H105R, A106S, Q107R
notes: also called GroEL2_SB9; not shown: Myc, C-terminal, kept; His6, C-terminal, kept
B16: GroEL2 sybody number 31 (VHH)
VHH: B12 VHH with Y30W, S32E, A56D, T101F, S103Y, F104N, H105N, A106N, Q107Y
notes: as for B1
B17: GroEL2 sybody number 7 (VHH)
VHH: B12 VHH with Y30N, M31D, S32A, E54M, A56F, T101R, S103K, F104E, A106F, Q107S
notes: as for B1
B18: GroEL2 sybody number 28 (VHH)
VHH: QVQLVESGGGLVQAGGSLRLSCAASGFPVDAYWMYWYRQAPGKEREWVAAIMSSGHGTWYADSVKGRFTISRDNAKNTVYLQMNSLKPEDTAVYSCNVKDKGAQAAWYDYWGQGTQVTVSA
notes: as for B1
B19: GroEL2 sybody number 10 (VHH)
VHH: QVQLVESGGGLVQAGGSLRLSCAASGFPVKHWYMHWYRQAPGKEREWVAAIQSTGSYTAYADSVKGRFTISRDNAKNTVYLQMNSLKPEDTAVYYCNVKEYGFYHASYDYWGQGTQVTVSA
notes: as for B1
B20: GroEL2 sybody number 11 (VHH)
VHH: QVQLVESGGGLVQAGGSLRLSCAASGFPVDSAYMWWYRQAPGKEREWVAAIESNGEYTFYADSVKGRFTISRDNAKNTVYLQMNSLKPEDTAVYYCNVKDTGAHHSYYDYWGQGTQVTVSA
notes: as for B1
B21: GroEL2 sybody number 27 (VHH)
VHH: B20 VHH with D30W, S31K, E56A, A103S, H104D, H105S, S106E, Y107N
notes: as for B1
B22: GroEL2 sybody number 1 (VHH)
VHH: QVQLVESGGGLVQAGGSLRLSCAASGFPVAITYMHWYRQAPGKEREWVAAISSTGKTTWYADSVKGRFTISRDNAKNTVYLQMNSLKPEDTAVYYCLVEVGHYYKGQGTQVTVSA
notes: as for B1

These binders were tested against T1, Mycobacterium marinum GroEL1, recombinant (Mycobacterium marinum, UniProt B2HD10 1-539) (assay: BLI). Conditions: both partners purified.
T1 construct: also called Mmr GroEL1
With B1 the Kd was about 127 nM. B2 showed a Kd of about 14 nM. With B3 the Kd was about 64 nM. B4 showed a Kd of about 92 nM. With B5 the Kd was about 130 nM. Binder B6 has a Kd of about 22 nM.

The binders below were run against T2, Mycobacterium marinum GroEL2, recombinant, biotinylated AVI-tagged form (Mycobacterium marinum, UniProt B2HQP9 1-541) (assay: BLI). Conditions: both partners purified.
T2 construct: also called Mmr GroEL2; biotinylated GroEL protein
B7 showed a Kd of about 18 nM. B8 was tested, and the Kd was about 157 nM. With B9 the Kd was about 366 nM. For B10, the Kd was about 153 nM. Work on B11 yielded a Kd of about 15 nM. B12 was tested, and the Kd was about 13 nM. B13 was tested, and the Kd was about 244 nM. For B14, the Kd was about 507 nM. For B15, the Kd was about 277 nM. B16 showed a Kd of about 66 nM. Binder B17 has a Kd of about 100 nM. B18 gave a Kd of about 35 nM. B19 showed a Kd of about 193 nM. B20 was tested, and the Kd was about 271 nM. B21 gave a Kd of about 101 nM. B22 gave a Kd of about 591 nM.
